Experimental data: paper PMC6071530, “The S100A4 Protein Signals through the ErbB4 Receptor to Promote Neuronal Survival” (Theranostics, 2018)
No end group written: not given here.

T1: human extracellular ErbB4/Fc chimera (human, UniProt Q15303 26-651)
T1 construct: ErbB4, human, extracellular part; also called Fc-conjugated ErbB4; source: bought: R&D Systems (carrier free)
T1 sequence (looked up): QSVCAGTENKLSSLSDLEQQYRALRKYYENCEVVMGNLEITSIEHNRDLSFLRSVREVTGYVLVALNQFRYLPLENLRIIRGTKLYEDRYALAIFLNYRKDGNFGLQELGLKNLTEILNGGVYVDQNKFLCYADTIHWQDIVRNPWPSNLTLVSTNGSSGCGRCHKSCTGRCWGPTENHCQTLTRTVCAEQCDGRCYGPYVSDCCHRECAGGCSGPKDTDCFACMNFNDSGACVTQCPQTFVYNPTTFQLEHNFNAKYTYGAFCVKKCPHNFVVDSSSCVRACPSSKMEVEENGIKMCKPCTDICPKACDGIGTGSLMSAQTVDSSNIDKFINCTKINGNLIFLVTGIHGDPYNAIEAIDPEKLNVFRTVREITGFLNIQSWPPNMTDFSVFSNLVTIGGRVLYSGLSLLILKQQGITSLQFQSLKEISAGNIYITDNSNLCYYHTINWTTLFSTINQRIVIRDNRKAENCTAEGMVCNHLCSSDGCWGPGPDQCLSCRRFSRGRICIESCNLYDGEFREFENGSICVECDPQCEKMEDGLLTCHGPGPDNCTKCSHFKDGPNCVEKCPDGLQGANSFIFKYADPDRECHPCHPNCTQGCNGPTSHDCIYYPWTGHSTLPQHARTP

B1: Recombinant human S100A4 (natural protein)
chain: not shown
notes: S100A4 protein, human, recombinant

What was measured:
Conditions in all cases: both partners purified
[1] = molecular target: T1, human extracellular ErbB4/Fc chimera; test: SPR; BIAcore 2000; 2000 RU of ErbB/Fc chimera immobilized covalently on a CM4 chip; S100A4 or peptides as analyte; apparent affinities calculated from binding kinetics
[2] = molecular target: T2, human extracellular ErbB1/Fc chimera (human, UniProt P00533 25-645); test: as above
T2 construct: ErbB1 (EGFR), human, extracellular part; also called EGFR; EGFR-Fc; source: bought: R&D Systems (carrier free)

[3] = molecular target: T3, human extracellular ErbB3/Fc chimera (human, UniProt P21860 20-643); test: as above
T3 construct: ErbB3, human, extracellular part; also called Fc-conjugated ErbB3; source: bought: R&D Systems (carrier free)
T3 sequence (P21860 20-643, change not shown): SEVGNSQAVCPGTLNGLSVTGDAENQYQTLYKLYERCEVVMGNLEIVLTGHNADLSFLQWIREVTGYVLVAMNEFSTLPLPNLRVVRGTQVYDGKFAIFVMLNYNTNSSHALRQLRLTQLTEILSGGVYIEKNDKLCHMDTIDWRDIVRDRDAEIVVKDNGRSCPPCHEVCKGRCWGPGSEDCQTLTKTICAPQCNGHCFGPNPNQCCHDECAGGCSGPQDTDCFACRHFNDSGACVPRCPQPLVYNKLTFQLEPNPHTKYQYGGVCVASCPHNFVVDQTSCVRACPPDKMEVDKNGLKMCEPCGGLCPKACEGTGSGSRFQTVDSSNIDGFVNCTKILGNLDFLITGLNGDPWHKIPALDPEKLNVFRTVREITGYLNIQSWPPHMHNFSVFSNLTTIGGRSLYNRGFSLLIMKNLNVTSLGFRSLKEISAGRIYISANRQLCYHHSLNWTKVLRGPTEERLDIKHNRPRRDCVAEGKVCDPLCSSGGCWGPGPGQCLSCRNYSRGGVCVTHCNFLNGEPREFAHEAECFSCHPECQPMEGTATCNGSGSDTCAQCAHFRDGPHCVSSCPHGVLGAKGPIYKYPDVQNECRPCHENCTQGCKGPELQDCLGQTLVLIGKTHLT

[4] = molecular target: B1; test: SPR; BIAcore 2000; 2000 RU of recombinant human S100A4 immobilized covalently on a CM4 chip; soluble AR or NRG as analyte
[5] = molecular target: T1, human extracellular ErbB4/Fc chimera; test: cross-linking; label transfer in solution: 100 nM Sulfo-SBED-conjugated protein with 50 nM Fc fusion or mouse IgG, 30 min in the dark at RT in TBS-Ca2+, UV 302 nm 5 min, precipitated with Protein A Dynabeads, reduced, biotin detected with streptavidin-HRP
[6] = molecular target: T2, human extracellular ErbB1/Fc chimera; test: as above
[7] = molecular target: T3, human extracellular ErbB3/Fc chimera; test: as above

Row | Kd [1] [nM] | Kd [2] [nM] | Kd [3] [nM] | Kd [4] [nM] | binding result [5] | binding result [6] | binding result [7] | Binder
1 | 217 ± 19.9 | 802 ± 114 | 62.3 ± 18.8 |  |  |  |  | NEFFEGFPDKQPRKK (also: tetramer: four monomers coupled to a lysine backbone, low-homology ('unique') motif in the C-terminal of S100A4; Dendrimeric tetramer: four copies of the peptide on a lysine backbone; source: synthetic peptide (Schafer-N, Denmark)) [H6 peptide (S100A4-derived), tetramer on a lysine backbone]
2 | 199 ± 53.1 | 107 ± 23.1 | 203 ± 46.7 |  |  |  |  | KELLTRELPSFLGKRT (also: tetramer: four monomers coupled to a lysine backbone, motif of S100A4 with high homology within the S100 family; Dendrimeric tetramer: four copies of the peptide on a lysine backbone; source: synthetic peptide (Schafer-N, Denmark)) [H3 peptide (S100A4-derived), tetramer on a lysine backbone]
3 |  |  |  | 71.3 ± 12.3 |  |  |  | amphiregulin (ligand, UniProt P15514 101-187, looked up, amphiregulin (AR), soluble, ligand of EGFR; also called AR; source: bought: R&D Systems (carrier free)) SVRVEQVVKPPQNKTESENTSDKPKRKKKGGKNGKNRRNRKKKNPCNAEFQNFCIHGECKYIEHLEAVTCKCQQEYFGERCGEKSMK
4 | 66 ± 26.9 | 21.4 ± 5.5 | 58 ± 30 |  |  |  |  | B1
5 |  |  |  |  | binds | binds | binds | Sulfo-SBED-S100A4 (natural protein, derivatized with sulfo-SBED (biotin label-transfer cross-linker); sites not stated, S100A4 protein, human, recombinant; The same protein as m1, carrying the sulfo-SBED label for the label transfer cross-linking; also called sulfo-SBED-conjugated S100A4) not shown
